Measured values published in publication PMC5020499, “Crystal structures of archaeal 2-oxoacid:ferredoxin oxidoreductases from Sulfolobus tokodaii” (Scientific Reports, 2016).
One block for each binder: values may come before it.

What was measured:
[1] = molecular target: the molecule itself; test: crystal structure; StOFOR1 co-crystallised with 50 mM 2-oxobutyrate and 1 mM CoA; sitting drop, 25 °C, 15% PEG3350, 0.1 M Tris-HCl pH 8.5, 0.1 M NaBr; 2.5 Å; two protomers in the asymmetric unit
[2] = molecular target: T1, StOFOR2 a-subunit (STK_24350) (Sulfolobus tokodaii, UniProt Q96XT2 1-628); test: crystal structure; StOFOR2 ligand-free (2.1 Å) and soaked with 50 mM pyruvate (2.2 Å); sitting drop, 20 °C, 0.7 M ammonium tartrate dibasic, 0.1 M Tris-HCl pH 8.5; one protomer in the asymmetric unit; conditions: both partners purified
T1 construct: a-subunit of 2-oxoacid:ferredoxin oxidoreductase StOFOR2, STK_24350, Sulfolobus tokodaii; gene amplified from genomic DNA with primers from the start codon to the stop codon; domains III (1a-228a), I (228a-500a), II (500a-627/628a); stk_23000 in pOFORAB was replaced with stk_24350; No tag is mentioned; A selenomethionine-labelled form (E. coli B834 (DE3)) was used for phasing only; also called …
T1 sequence (looked up): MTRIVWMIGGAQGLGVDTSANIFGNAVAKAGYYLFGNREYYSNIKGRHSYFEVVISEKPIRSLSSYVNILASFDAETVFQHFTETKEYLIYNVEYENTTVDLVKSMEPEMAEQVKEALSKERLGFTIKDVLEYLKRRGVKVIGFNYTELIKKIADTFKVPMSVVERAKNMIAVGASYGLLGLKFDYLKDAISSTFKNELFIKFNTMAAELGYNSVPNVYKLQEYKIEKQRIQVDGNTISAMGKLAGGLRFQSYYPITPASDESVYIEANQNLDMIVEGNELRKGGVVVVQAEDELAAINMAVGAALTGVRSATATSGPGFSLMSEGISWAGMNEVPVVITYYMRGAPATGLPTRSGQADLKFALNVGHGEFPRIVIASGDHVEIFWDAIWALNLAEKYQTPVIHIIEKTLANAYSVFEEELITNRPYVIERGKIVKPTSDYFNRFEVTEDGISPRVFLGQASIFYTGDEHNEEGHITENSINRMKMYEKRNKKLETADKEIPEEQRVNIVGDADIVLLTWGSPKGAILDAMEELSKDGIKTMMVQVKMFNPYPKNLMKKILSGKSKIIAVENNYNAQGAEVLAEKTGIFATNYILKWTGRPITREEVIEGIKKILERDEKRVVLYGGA

[3] = molecular target: the molecule itself; test: as above

B1: StOFOR1 protomer (heterodimer of a-subunit STK_23000 and b-subunit STK_22980) (complex, Sulfolobus tokodaii strain 7)
chain 1: MRLSWVIGGAQGTGIDTAANIFGNAVASAGYYIYGNREYYSNIKGRHSYFSLTISDKRVRSNTQKIDILVSFDAETVFQHFYDVKDILIYNKAVETTKIDAVQSMEPELAERIKDFLTKQGYETTVKGALEYASKNNVTLIPVNYDEIAKKVADEMKVPLSVTERVKNIVGITISYKLLGLDVNYLIEAINSTFKQDLYRKMNELAVKDSYDIVESRYNLKPSSKERRRFWLDGNTAVAIGKIYGGVRFQSYYPITPASDESVYIEAHQDVLMEDPITGDKKKGTIVVVQAEDELAAINMAIGAALTGVRAATATSGPGFSLMVEGLGWAGMNEVPVVITYYIRGGPSTGLPTRTAQSDLIFPIFAGHGEFPKIVLASGDHAEAFKDAIWALNLAEKYQTPVIHLVEKTLANSYSTIPYEELELDKLKAERGKIVESGDISYKRFKFTEDGISPRAFLGKATMYYTGDEHNEEGHISEDVVNRTMMYEKRMKKLEVADKEIPEESRVKIYGDLNSRNLIITWGSPTGVLRDILEESNFDFTLLQIRMFSPFPKNLVSKLMEGRDKIITVEGNYLAQTSLLVKMYTGKDVTNSILKWNGRPFLRDELEEALIKVIKDGEKRVVLNGGI
chain 2: PQWNDWCPGCGNFGILNAEQQAIVELGVDTKNVVVVSGIGCSGKIPHFFRTPISGVHTLHGRAIAFATGIKLSNPDLVVIVNGGDGDLLGIGAGHFVAAGRRNVDMVVILHDNGVYGLTKGQASPTLKRGEKPKSLPRPNINDAVNPIALAISSGYTFVARGYAYDVKHLKELIKSAIKHKGLALIDVLQPCPTYNDINTKEWYDKRIYKLDTLPDWDPVVKKPEEVNEKIKRAIDKSLEWGDRIPIGIFYQNELVPSYEERIKANSPAYLDYTPAKQLIEKEGKLTTIIDPLLKEREVD
notes: a-subunit of StOFOR1, STK_23000, Sulfolobus tokodaii strain 7, 70 kDa; as the chain of m1; b-subunit of StOFOR1, STK_22980, Sulfolobus tokodaii strain 7, 34 kDa; as the chain of m2; One protomer is the pair of a- and b-subunits that holds one TPP; Two protomers form the (ab)2 enzyme; Cofactors: TPP, Mg2+, [4Fe-4S]; also called STK_23000/STK_22980; source: E. coli C43 (DE3), both subunits …
stoichiometry N [1]: 2

binding result [2]: binds
B2: StOFOR2 b-subunit (STK_24330) (natural protein, Sulfolobus tokodaii, UniProt Q96XT4 1-304, looked up)
chain: MVERKPVFVDWCPGCGDFGILRAEEMAIRELGINPKSVVIVSGIGCSGKIPHFMNLPISGVHTLHGRSIAFATGIKLSNPSLEVIVNVGDGDGLGIGMGHFVHLGRRNIDIAVLVHNNGVYGLTKGQASPTLHRGEKTKSLPKPNIMDAVNPLAVALAAGYTFVARGYAYDVMHLKELIKKAILHKGSALVDILQPCPTYNDINTKEWYDKRVYKLDNVPGWDPVVRKEEEAQKKFEQAIMKSYEWGEKIPIGIFYQNELVPTFEDRLTSNIPNYREYYPAKQQIEINGISTTKIDELIKAKRI
notes: b-subunit of 2-oxoacid:ferredoxin oxidoreductase StOFOR2, STK_24330, Sulfolobus tokodaii; gene amplified from genomic DNA with primers from the start codon to the stop codon; domain VI (1b-305b); stk_22980 in pOFORAB was replaced with stk_24330; No tag is mentioned; Holds the [4Fe-4S] cluster; also called b-subunit of StOFOR2; source: E. coli C43 (DE3), expressed with the a-subunit, purified …

B3: StOFOR2 protomer (heterodimer of a-subunit STK_24350 and b-subunit STK_24330) (complex, Sulfolobus tokodaii)
chain 1: MTRIVWMIGGAQGLGVDTSANIFGNAVAKAGYYLFGNREYYSNIKGRHSYFEVVISEKPIRSLSSYVNILASFDAETVFQHFTETKEYLIYNVEYENTTVDLVKSMEPEMAEQVKEALSKERLGFTIKDVLEYLKRRGVKVIGFNYTELIKKIADTFKVPMSVVERAKNMIAVGASYGLLGLKFDYLKDAISSTFKNELFIKFNTMAAELGYNSVPNVYKLQEYKIEKQRIQVDGNTISAMGKLAGGLRFQSYYPITPASDESVYIEANQNLDMIVEGNELRKGGVVVVQAEDELAAINMAVGAALTGVRSATATSGPGFSLMSEGISWAGMNEVPVVITYYMRGAPATGLPTRSGQADLKFALNVGHGEFPRIVIASGDHVEIFWDAIWALNLAEKYQTPVIHIIEKTLANAYSVFEEELITNRPYVIERGKIVKPTSDYFNRFEVTEDGISPRVFLGQASIFYTGDEHNEEGHITENSINRMKMYEKRNKKLETADKEIPEEQRVNIVGDADIVLLTWGSPKGAILDAMEELSKDGIKTMMVQVKMFNPYPKNLMKKILSGKSKIIAVENNYNAQGAEVLAEKTGIFATNYILKWTGRPITREEVIEGIKKILERDEKRVVLYGGA
chain 2: MVERKPVFVDWCPGCGDFGILRAEEMAIRELGINPKSVVIVSGIGCSGKIPHFMNLPISGVHTLHGRSIAFATGIKLSNPSLEVIVNVGDGDGLGIGMGHFVHLGRRNIDIAVLVHNNGVYGLTKGQASPTLHRGEKTKSLPKPNIMDAVNPLAVALAAGYTFVARGYAYDVMHLKELIKKAILHKGSALVDILQPCPTYNDINTKEWYDKRVYKLDNVPGWDPVVRKEEEAQKKFEQAIMKSYEWGEKIPIGIFYQNELVPTFEDRLTSNIPNYREYYPAKQQIEINGISTTKIDELIKAKRI
notes: a-subunit of StOFOR2, STK_24350, Sulfolobus tokodaii; primers from the start codon to the stop codon; as the chain of m3; b-subunit of StOFOR2, STK_24330, Sulfolobus tokodaii; as the chain of m4; One protomer is the pair of a- and b-subunits that holds one TPP; Two crystallographically identical protomers form the (ab)2 enzyme; Cofactors: TPP, Mg2+, [4Fe-4S]; also called STK_24350/STK_24330; …
stoichiometry N [3]: 2
